± gives the half width of the 95% confidence interval.
test: folding stability dG unfold from chymotrypsin proteolysis; higher = more stable
Outline: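 Digests were run with trypsin and chymotrypsin at 11 concentrations in threefold dilutions, plus a no-protease condition, on designed mini-proteins in a PA-tagged cDNA display construct. The mini-proteins were under 80 residues, had no cysteine, and were kept only when AlphaFold2 dimer inter-PAE was above 15. After sequencing, Bayesian fitting of the counts gave K50, from which unfolding free energy was derived against a sequence-predicted unfolded-state K50 and a shared folded-state K50, per protease or combined.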

Row | Sequence | folding stability dG unfold [kcal/mol]
1 | SAGGSAGGSAGGEIKPGETITNLKVKIRNKKTGKTITVTLKPGETAEDLAKKLGVEIEPSAGGSAGGSAGGS [r10_202_TrROS_Hall] | 0.881 ± 0.097
2 | SAGGSAGGSAGEKPVYYARVTEVKYNPENKELEIKLENGETITLSLEELKSLKPGDIIRISAGGSAGGSAGG [r11_124_TrROS_Hall] | 2 ± 0.023
3 | SAGMTVTLPGDKSYTVTVKYTLYDADGKKLGEKTYTKTVTVAPNSTVTINIPNTYPNTVVTEVTVTPESAGG [r19_295_JUSTAS] | 4.38 ± 0.092
4 | SAGMTEEELKKLKEKFPNLKIEPVKTITIKVEPNASVEEIAKKLKELLNIDKVEIEVNEETGEITIRIYSAG [r5_694_TrROS_Hall] | 4.07 ± 0.16
5 | SAGGSAGGSAGRVEKIVSNLKPLGYEVLSVEETEDYVLAVVYDPFTDEPRVFRFPKDSPFSAGGSAGGSAGG [r11_428_TrMRF] | 1.18 ± 0.13
6 | SAWIPIDSPEEAKDIAKEIADNYGLEDTKVEPMPDNYVVVKLEFEMPNENGQKRKRNITIYYDPDGKFWSAG [r14_420_TrROS] | 1.07 ± 0.083
7 | SAGGSAGGSKPPPTVEIEITLEDGTVLRIRVTPDRIEIENLETGKRFTFPPGATIEIEVRKLPSAGGSAGGS [r12_227_TrROS_Hall] | 3.73 ± 0.49
8 | SAGADSVTYDPETNLVVVYRRVGDDVEVLVLEPVPLPVVVVVPVEDAVTRNPELRPLLEQNPDFYLVFPSAG [r5_957_TrMRF] | 2.248 ± 0.022
9 | SAGGSAGGSAGLFPGPENIPKVSITPFEVENPLDDYTVTLYRVDFPDLGLSLPAALVSKRSAGGSAGGSAGG [r17_31_TrMRF] | 1.6 ± 0.07
10 | SAGKIKIPPGQEIWIIVNVEWQPDPDNGEPRYTVTVMKIKIKADPNGGLKIESIETKIVPAEDLKDNGLSAG [r5_340_TrROS] | 3.6 ± 0.078
11 | SAGGSAGGSAPRPIEIMFPWDSPEDAHEEAEEIARTFAQEDNIKVKVEYYPREGWVKVKIRVSAGGSAGGSA [r18_368_TrROS] | 1.57 ± 0.34
12 | SMEVVEEFTLPNGTRITLTKNEDGTVTVTLETTVKNPETGKTTTKTVTITVKLEPGEEYSLEELLATLLSSA [r9_614_TrROS_Hall] | 3.77 ± 0.039
13 | SPDVKILDIERHPDDGSISIKLKFPDGWPVTLHYNPDGSHTIHNPGNGAPIQIKYDGNQLKIELPDNLKFSA [r9_233_TrROS] | 0.868 ± 0.086
14 | MALPERLRELTPPVPPELALEAALKRAEELGLEEVREVRVLSVTPDGYIEVEIELPEGGSVRIRIPLEDLFS [r1_435_TrMRF] | 0.608 ± 0.18
15 | SKYVQVRFPNYTIMVKKRKSPNGKPEVEVMLYNPPNGKMIPVEVKSPEDAEEAVKDAIRAMFPDEELRDLSA [r9_749_TrROS] | 0.46 ± 0.47
16 | SAGGSAGGSVITLPNGVKLVTVKVSRPELDETETVTVPLEGMTLEEIKERLKKEGYKEVVFLESAGGSAGGS [r12_792_JUSTAS] | 1.28 ± 0.036

Row | Sequence | folding stability dG unfold [kcal/mol]
17 | SAEEPSLEELLAAIEEEAEARAREFLERHPDVPPGAVLKVPVTLTYPLRLGDVEYPVTFEAEVDVVVPASAG [r14_486_TrMRF] | 2.01 ± 0.086
18 | SAGGSAGGSEEEVEIVDVEIEEKDGKLVIRAKIRNKETGELYEVTLVFDKETGELHLEVRKLPSAGGSAGGS [r12_14_TrROS_Hall] | 3.78 ± 0.13
19 | SAGSPSMVVTVRLTVTTTDPVTGTTTTTTLDIPVSPASLSTPPAQVAAALTAAAPATTIDVTVDSVLLSAGG [r19_189_JUSTAS] | 1.06 ± 0.06
20 | SAGGSAGGSADDGDPNKQEPKPEVKVRPIEIRMSFAYYPPNGEPWMFSIEIRIWVYDGGLVSAGGSAGGSAG [r3_380_TrROS] | 5.61 ± 0.095
21 | SAGGSAGGSAQWVIRIKMPNGSTRELRIPGMTPEKAREIAKELADQNNIKDVDIYPPGQKISAGGSAGGSAG [r3_160_TrROS] | 0.393 ± 0.17
22 | SAGGMKIKAEDIVSVEVTYNEETNELTVKVTVRINGKEVTLTFPEGMSEEELKRLLEELIKKGELEIESAGG [r13_225_TrROS_Hall] | 2.96 ± 0.1
23 | SAGGSASIEELLKEIIDNLKPGEKYKITIEVDGEEKTFTFTNKNGEKIEIVVKDGKIVSIKIEKLPSAGGSA [r15_175_TrROS_Hall] | 4.21 ± 0.12
24 | SAGGGVEITREPDPAGGRRVRFTDPSGRTFEVEITPDSLRITRPDGTTRSAAVPPDADLRLPYSELASAGGS [r16_203_JUSTAS] | 0.418 ± 0.041
25 | SAGGMPVGVARVRTEAGDKVLEFTVEVPADVGAVEIRVKLKPDPLTGEPVVEEILEVRTYRAPPDVELSAGG [r13_568_TrMRF] | 0.837 ± 0.075
26 | SAGYFIMVKFEFPDGGPQEFMIWIPPDENPEKLTKEEAKEVAKSIANSNQDQGGFEVKDVEIMPPDDMSAGG [r19_27_TrROS] | 2.03 ± 0.088
27 | SAGGSAGGSAGKVKLVEENGKLKLVVVDEKTKKVTVIEVPLENLDEILKLLPPGAKVYLLSAGGSAGGSAGG [r11_1006_TrROS_Hall] | 2.52 ± 0.049
28 | SAGMSLEELAKELAKKLNIEKVEIKYDKETNKVTIKIYFKKNKKKITITIKKENMTPEEIKKLLEEILKSAG [r5_896_TrROS_Hall] | 4.51 ± 0.098
29 | SPAEINIEFDPEEGRLRIKVKLEWPGGDPEPIATHEVPIGNNRYITYPIYKHPDGPWRIEDIDIMPPDELSA [r9_780_TrROS] | 1 ± 0.15
30 | SMKPYVYTHPEGITIPMFVLPDGTIKIEVTAFDPNNPVPLGKATATMDPATGTLNLTLPNGTSLSYTIPASA [r9_56_JUSTAS] | 2.46 ± 0.1
31 | SAGGSAGGSAGGKKYEITRILSIEETEDGRIRILIETKTGIIEFDDISEIPPEIRELLGSAGGSAGGSAGGS [r10_748_TrMRF] | 2.668 ± 0.021

Source: the supplement of paper PMC12764529
